# Assay results from patent US20100158927A1.
# Molecular target: HLA-A2 molecules on the cell surface (total) (human)
# Experiment: flow cytometry on 501A melanoma cells, PE-conjugated BB7.2
substance,measurement,value
anti-HLA-A2 mAb BB7.2 (antibody),MFI,56.4 MFI
